Experimental data from paper doi:10.1101/2020.06.25.170399 (bioRxiv, 2020).

Molecular target: T1, γ subunit of human NAD-dependent isocitrate dehydrogenase (IDH3) (human, UniProt P51553 40-393)
T1 sequence: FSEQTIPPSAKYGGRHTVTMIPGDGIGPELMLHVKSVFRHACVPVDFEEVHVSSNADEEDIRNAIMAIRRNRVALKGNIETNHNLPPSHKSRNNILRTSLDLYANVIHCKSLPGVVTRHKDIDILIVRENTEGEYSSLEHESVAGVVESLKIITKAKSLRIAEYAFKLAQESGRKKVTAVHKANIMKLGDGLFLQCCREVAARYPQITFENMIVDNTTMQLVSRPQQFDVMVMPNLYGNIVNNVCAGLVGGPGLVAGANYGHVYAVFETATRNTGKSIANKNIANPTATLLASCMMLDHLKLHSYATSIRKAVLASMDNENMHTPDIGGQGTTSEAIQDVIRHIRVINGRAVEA
Experiment: SEC-MALS

B1: α subunit of human NAD-dependent isocitrate dehydrogenase (IDH3) (natural protein)
chain: TGGVQTVTLIPGDGIGPEISAAVMKIFDAAKAPIQWEERNVTAIQGPGGKWMIPSEAKESMDKNKMGLKGPLKTPIAAGHPSMNLLLRKTFDLYANVRPCVSIEGYKTPYTDVNIVTIRENTEGEYSGIEHVIVDGVVQSIKLITEGASKRIAEFAFEYARNNHRSNVTAVHKANIMRMSDGLFLQKCREVAESCKDIKFNEMYLDTVCLNMVQDPSQFDVLVMPNLYGDILSDLCAGLIGGLGVTPSGNIGANGVAIFESVHGTAPDIAGKDMANPTALLLSAVMMLRHMGLFDHAARIEAACFATIKDGKSLTKDLGGNAKCSDFTEEICRRVKDLD
binding result: binds
